# Experimental data published in patent US20220387586A1 (Hoffmann-La Roche, published 2022).
# Read-outs that look alike come from different tables or passages of the source.
# B1: PD1/LAG3 8310 (bispecific antibody, human IgG1, kappa, L234A L235A)
# heavy 1: not shown
# heavy 2: EVQLLESGGGLVQPGGSLRLSCAASGFIFDDYTMNWVRQAPGKGLEWVAVISWDGGGTYYTDSVKGRFTISRDDFKNTLYLQMNSLRAEDTAVYYCAKGLTDTTLYGSDYWGQGTLVTVSSASTKGPSVFPLAPSSKSTSGGTAALGCLVEDYFPEPVTVSWNSGALTSGVHTFPAVLQSSGLYSLSSVVTVPSSSLGTQTYICNVNHKPSNTKVDEKVEPKSCDKTHTCPPCPAPEAAGGPSVFLFPPKPKDTLMISRTPEVTCVVVDVSHEDPEVKFNWYVDGVEVHNAKTKPREEQYNSTYRVVSVLTVLHQDWLNGKEYKCKVSNKALGAPIEKTISKAKGQPREPQVCTLPPSRDELTKNQVSLSCAVKGFYPSDIAVEWESNGQPENNYKTTPPVLDSDGSFFLVSKLTVDKSRWQQGNVFSCSVMHEALHNHYTQKSLSLSPGK
# light 1: DIVMTQSPDSLAVSLGERATINCKASESVDTSDNSFIHWYQQKPGQSPKLLIYRSSTLESGVPDRFSGSGSGTDFTLTISSLQAEDVAVYYCQQNYDVPWTFGQGTKVEIKSSASTKGPSVFPLAPSSKSTSGGTAALGCLVKDYFPEPVTVSWNSGALTSGVHTFPAVLQSSGLYSLSSVVTVPSSSLGTQTYICNVNHKPSNTKVDKKVEPKSC
# light 2: not shown
# notes: 2+1 format: two LAG3 Fabs, one PD1 crossFab fused to the C-terminus of the Fc knob heavy chain
# B2: PD1/LAG3 8311 (bispecific antibody, human IgG1, kappa, L234A L235A)
# heavy 1: not shown
# heavy 2: EVQLVESGGGLVQPGGSLRLACAASGFTFSDYAMSWVRQAPGKGLEWVSGIDNSGYYTYYTDSVKGRFTISRDDVKNTLYLQMNSLRAEDTAVYLCTKTHSGLIVNDAFDIWGQGTMVTVSSASTKGPSVFPLAPSSKSTSGGTAALGCLVEDYFPEPVTVSWNSGALTSGVHTFPAVLQSSGLYSLSSVVTVPSSSLGTQTYICNVNHKPSNTKVDEKVEPKSCDKTHTCPPCPAPEAAGGPSVFLFPPKPKDTLMISRTPEVTCVVVDVSHEDPEVKFNWYVDGVEVHNAKTKPREEQYNSTYRVVSVLTVLHQDWLNGKEYKCKVSNKALGAPIEKTISKAKGQPREPQVCTLPPSRDELTKNQVSLSCAVKGFYPSDIAVEWESNGQPENNYKTTPPVLDSDGSFFLVSKLTVDKSRWQQGNVFSCSVMHEALHNHYTQKSLSLSPGK
# light 1: B1 light 1
# light 2: not shown
# notes: as for B1
# B3: PD1/LAG3 8970 (bispecific antibody, human IgG1, kappa, L234A L235A)
# heavy: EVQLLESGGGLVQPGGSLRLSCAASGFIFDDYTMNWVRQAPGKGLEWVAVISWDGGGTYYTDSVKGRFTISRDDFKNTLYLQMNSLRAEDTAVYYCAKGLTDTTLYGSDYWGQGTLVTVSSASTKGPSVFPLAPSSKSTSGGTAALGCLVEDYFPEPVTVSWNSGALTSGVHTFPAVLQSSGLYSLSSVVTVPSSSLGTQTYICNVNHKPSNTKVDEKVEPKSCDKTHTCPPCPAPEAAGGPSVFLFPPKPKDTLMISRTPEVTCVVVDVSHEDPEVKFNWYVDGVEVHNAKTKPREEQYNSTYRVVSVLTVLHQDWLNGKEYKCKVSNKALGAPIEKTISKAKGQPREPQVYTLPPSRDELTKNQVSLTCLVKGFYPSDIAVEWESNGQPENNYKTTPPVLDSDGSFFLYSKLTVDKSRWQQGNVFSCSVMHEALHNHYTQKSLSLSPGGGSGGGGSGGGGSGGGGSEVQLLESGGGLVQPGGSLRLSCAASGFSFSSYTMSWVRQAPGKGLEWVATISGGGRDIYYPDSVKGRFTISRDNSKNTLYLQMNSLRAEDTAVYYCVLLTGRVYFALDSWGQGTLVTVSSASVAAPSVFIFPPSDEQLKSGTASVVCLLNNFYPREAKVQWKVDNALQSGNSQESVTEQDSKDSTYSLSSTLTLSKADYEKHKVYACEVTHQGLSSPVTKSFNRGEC
# light 1: B1 light 1
# light 2: not shown
# notes: 2+2 format
# B4: PD1/LAG3 8984 (bispecific antibody, human IgG1, kappa, L234A L235A)
# heavy: not shown
# light 1: B1 light 1
# light 2: not shown
# notes: 2+2 format
# B5: 0918 (bispecific antibody, human IgG1, kappa, L234A L235A)
# heavy chain 1 (aLAG3 25F7 heavy chain, hole, with PD1 0376 VH at the C-terminus): QVQLQQWGAGLLKPSETLSLTCAVYGGSFSDYYWNWIRQPPGKGLEWIGEINHNGNTNSNPSLKSRVTLSLDTSKNQFSLKLRSVTAADTAVYYCAFGYSDYEYNWFDPWGQGTLVTVSSASTKGPSVFPLAPSSKSTSGGTAALGCLVKDYFPEPVTVSWNSGALTSGVHTFPAVLQSSGLYSLSSVVTVPSSSLGTQTYICNVNHKPSNTKVDKKVEPKSCDKTHTCPPCPAPEAAGGPSVFLFPPKPKDTLMISRTPEVTCVVVDVSHEDPEVKFNWYVDGVEVHNAKTKPREEQYNSTYRVVSVLTVLHQDWLNGKEYKCKVSNKALGAPIEKTISKAKGQPREPQVCTLPPSRDELTKNQVSLSCAVKGFYPSDIAVEWESNGQPENNYKTTPPVLDSDGSFFLVSKLTVDKSRWQQGNVFSCSVMHEALHNHYTQKSLSLSPGGGGGSGGGGSGGGGSGGGGSEVQLLESGGGLVQPGGSLRLSCAASGFSFSSYTMSWVRQAPGKGLEWVATISGGGRDIYYPDSVKGRFTISRDNSKNTLYLQMNSLRAEDTAVYYCVLLTGRVYFALDSWGQGTLVTVSS
# heavy chain 2 (aLAG3 25F7 heavy chain, knob, with PD1 0376 VL at the C-terminus): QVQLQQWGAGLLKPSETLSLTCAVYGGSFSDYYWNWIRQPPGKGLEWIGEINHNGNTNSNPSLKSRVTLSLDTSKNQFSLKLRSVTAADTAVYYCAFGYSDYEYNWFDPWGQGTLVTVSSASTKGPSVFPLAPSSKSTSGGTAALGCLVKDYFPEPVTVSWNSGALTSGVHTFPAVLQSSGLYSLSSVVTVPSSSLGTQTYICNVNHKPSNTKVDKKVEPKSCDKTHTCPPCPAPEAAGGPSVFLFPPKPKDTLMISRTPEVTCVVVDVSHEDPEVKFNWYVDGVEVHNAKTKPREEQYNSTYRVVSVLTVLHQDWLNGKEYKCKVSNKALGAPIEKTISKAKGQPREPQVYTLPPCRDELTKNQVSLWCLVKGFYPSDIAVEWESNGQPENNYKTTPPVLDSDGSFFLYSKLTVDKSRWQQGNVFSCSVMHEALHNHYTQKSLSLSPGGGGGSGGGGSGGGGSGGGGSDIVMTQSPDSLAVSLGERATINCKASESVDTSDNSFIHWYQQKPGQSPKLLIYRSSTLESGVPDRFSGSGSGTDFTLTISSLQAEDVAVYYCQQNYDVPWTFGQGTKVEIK
# light chain (aLAG3 25F7): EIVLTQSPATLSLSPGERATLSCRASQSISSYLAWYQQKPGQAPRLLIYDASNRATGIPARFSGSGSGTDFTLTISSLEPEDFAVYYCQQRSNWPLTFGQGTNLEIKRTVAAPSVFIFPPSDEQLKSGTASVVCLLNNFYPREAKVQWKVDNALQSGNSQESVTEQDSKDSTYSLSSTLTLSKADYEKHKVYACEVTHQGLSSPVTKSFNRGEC
# notes: also called PD1/LAG3 0918
# Key:
# [1] = target: T1, PD1 on PD1+LAG3+ human U2OS cells (UniProt Q15116 25-288); test: cell-based or functional assay
# T1 sequence (Q15116 25-288): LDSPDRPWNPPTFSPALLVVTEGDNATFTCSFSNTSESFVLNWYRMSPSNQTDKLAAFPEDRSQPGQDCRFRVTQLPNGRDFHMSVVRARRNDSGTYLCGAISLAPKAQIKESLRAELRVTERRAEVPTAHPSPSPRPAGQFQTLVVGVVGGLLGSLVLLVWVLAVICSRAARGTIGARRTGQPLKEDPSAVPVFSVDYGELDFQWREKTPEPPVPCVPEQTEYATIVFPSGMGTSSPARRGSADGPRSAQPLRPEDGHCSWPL
# [2] = target: T1, PD1 on PD1+LAG3+ human U2OS cells; test: cell-based or functional assay; remark: listed apart in the source
# [3] = target: T2, recombinant Human LAG-3 Fc Chimera Protein (R&D Systems, 2319-L3) (human, UniProt P18627 29-450); test: ELISA on coated Human LAG-3 Fc Chimera (rel. EC50)
# T2 construct: Bought protein; also called huLAG3; not shown: Fc part of the chimera
# T2 sequence: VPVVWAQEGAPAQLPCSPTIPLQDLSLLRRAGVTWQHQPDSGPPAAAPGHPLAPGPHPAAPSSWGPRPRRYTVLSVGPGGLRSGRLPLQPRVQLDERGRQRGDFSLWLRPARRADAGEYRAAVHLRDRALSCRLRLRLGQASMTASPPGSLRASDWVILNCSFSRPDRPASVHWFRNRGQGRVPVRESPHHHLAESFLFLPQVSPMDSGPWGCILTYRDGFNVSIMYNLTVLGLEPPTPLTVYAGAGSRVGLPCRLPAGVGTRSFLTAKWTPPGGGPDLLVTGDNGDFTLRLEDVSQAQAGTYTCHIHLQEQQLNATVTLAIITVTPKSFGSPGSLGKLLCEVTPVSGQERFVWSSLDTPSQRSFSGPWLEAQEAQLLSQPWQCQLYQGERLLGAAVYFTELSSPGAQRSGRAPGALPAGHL
# Method: After washing (3×90 μl/well with PBST-buffer) each well was incubated with 90 μl blocking buffer (PBS+2% BSA+0.05% Tween 20) for 1 h at room temperature. […] After washing (3×90 μl/well with PBST-buffer) 25 μl/well goat anti-Human Ig κ chain antibody-HRP conjugate (Milipore, AP502P) was added in a 1:2000 dilution and incubated at RT for 1 h. After washing (3×90 μl/well with PBST-buffer) 25 μl/well TMB substrate (Roche, 11835033001) was added and incubated for 2-10 min. Measurement took place on a Tecan Safire 2 instrument at 370/492 nm.
# [4] = target: T3, biotinylated PD1-ECD-AviHis (human, UniProt Q15116 25-170, biotinylated); test: ELISA on coated biotinylated PD1-ECD-AviHis (rel. EC50)
# T3 construct: also called huPD1; hu PD1; not shown: Avi-His tag
# T3 sequence (Q15116 25-170): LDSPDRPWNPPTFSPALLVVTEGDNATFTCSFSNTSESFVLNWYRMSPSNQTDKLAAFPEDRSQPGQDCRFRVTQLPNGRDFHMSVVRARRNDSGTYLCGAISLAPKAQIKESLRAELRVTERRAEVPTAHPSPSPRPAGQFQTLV
# Method: After washing (3×90 μl/well with PBST-buffer) 25 μl/well goat-anti-human H+L-POD (JIR, JIR109-036-098) was added in 1:5000 dilution and incubated at RT for 1 h on a shaker. After washing (3×90 μl/well with PBST-buffer) 25 μl/well of TMB substrate (Roche, 11835033001) was added and incubated until OD 2-3. Measurement took place at 370/492 nm.
# [5] = target: T4, LAG3 on cells (recombinant CHO cells expressing Lag3) (human, UniProt P18627 29-525); test: cell ELISA on recombinant CHO cells expressing Lag3 (rel. EC50)
# T4 construct: The cell ELISA paragraphs say only 'Lag3'; also called CHO-LAG3; Lag3 cells
# T4 sequence: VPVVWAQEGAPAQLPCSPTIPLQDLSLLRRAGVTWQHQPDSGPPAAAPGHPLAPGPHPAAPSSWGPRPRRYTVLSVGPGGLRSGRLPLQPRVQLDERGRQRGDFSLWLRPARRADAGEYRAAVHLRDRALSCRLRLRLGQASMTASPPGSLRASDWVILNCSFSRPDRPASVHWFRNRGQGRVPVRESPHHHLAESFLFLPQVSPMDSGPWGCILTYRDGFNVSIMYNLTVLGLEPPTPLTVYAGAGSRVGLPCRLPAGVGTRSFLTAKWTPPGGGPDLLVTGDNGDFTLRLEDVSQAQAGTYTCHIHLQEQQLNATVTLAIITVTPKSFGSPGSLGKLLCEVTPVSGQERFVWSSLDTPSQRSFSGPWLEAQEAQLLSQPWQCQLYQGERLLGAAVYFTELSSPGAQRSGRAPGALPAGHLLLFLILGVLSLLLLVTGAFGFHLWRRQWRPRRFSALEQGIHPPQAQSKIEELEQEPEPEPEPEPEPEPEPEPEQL
# Method: After washing (1×90 μl in PBST) cells were fixed by addition of 30 μl/well glutaraldehyde to a final concentration of 0.05% (Sigma Cat.No: G5882), 10 min at room temperature. After washing (3×90 μl/well with PBST-buffer) 25 μl/well goat anti-Human Ig κ chain antibody-HRP conjugate (Milipore, AP502P) was added in a 1:1000 dilution and incubated at RT for 1 h. After washing (3×90 μl/well with PBST-buffer) 25 μl/well TMB substrate (Roche, 11835033001) was added and incubated for 6-10 min. Measurement took place on a Tecan Safire 2 instrument at 370/492 nm.
# [6] = target: T5, full-length human PD1 on cells (human, UniProt Q15116 25-288); test: cell ELISA on CHO-K1 cells expressing full-length human PD1 (rel. EC50)
# T5 construct: also called CHO-PD1
# T5 sequence (Q15116 25-288 limits assumed): as the sequence (Q15116 25-288) above
# Method: (to avoid internalization). After washing carefully (1×90 μl/well PBST) cells were fixed by adding 30 μl/well 0.05% Glutaraldehyde (Sigma, Cat.No: G5882, 25%) diluted in 1×PBS-buffer and incubated for 10 min at RT. After washing (3×90 μl/well PBST) 25 μl/well secondary antibody was added for detection: goat-anti-human H+L-POD (JIR, JIR109-036-088)/Sheep-anti-mouse-POD (GE NA9310) followed by 1 h incubation at RT on shaker. After washing (3×90 μl/well PBST) 25 μl/well TMB substrate solution (Roche 11835033001) was added and incubated until OD 1.0-2.0. Plates were measured at 370/492 nm.
# biotinylated-Lag3 = target: T6, biotinylated-Lag3 (UniProt P18627 23-450, limits assumed, biotinylated); test: ELISA, inhibition of biotinylated-Lag3 binding to MHC-II on A375 cells (competitor MHC-II)
# T6 construct: Probably a human LAG3 ECD construct; also called Lag3 (MHCII/ELISA)
# T6 sequence (looked up): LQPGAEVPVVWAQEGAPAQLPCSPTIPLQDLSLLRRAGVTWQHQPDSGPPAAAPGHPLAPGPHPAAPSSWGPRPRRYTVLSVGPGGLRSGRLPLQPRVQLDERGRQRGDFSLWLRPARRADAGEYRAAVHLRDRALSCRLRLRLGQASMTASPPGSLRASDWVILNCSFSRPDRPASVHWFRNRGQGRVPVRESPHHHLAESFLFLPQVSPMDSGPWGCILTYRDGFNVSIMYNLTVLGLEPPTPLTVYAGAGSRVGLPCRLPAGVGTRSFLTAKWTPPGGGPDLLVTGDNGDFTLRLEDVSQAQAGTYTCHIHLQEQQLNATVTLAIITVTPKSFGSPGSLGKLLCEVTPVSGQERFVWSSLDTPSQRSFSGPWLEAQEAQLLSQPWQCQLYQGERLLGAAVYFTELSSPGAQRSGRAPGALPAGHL
# Method: 25 μl/well of A375 cells (10000 cells/well) were seeded into tissue culture treated 384-well plates (Corning, 3701) and incubated at 37° C. overnight. […] After washing (1×90 μl in PBST) cells were fixed by addition of 30 μl/well glutaraldehyde to a final concentration of 0.05% (Sigma Cat.No: G5882), 10 min at room temperature. After washing (3×90 μl/well with PBST-buffer) 25 μl/well Poly-HRP40-Streptavidin (Fitzgerald, 65R-S104PHRPx) was added in a 1:2000 or 1:8000 dilution and incubated at RT for 1 h. After washing (3×90 μl/well with PBST-buffer) 25 μl/well TMB substrate (Roche, 11835033001) was added and incubated for 2 to 10 min. Measurement took place on a Tecan Safire 2 instrument at 370/492 nm.
# [7] = target: T1, PD1 on PD1+LAG3+ human U2OS cells; test: cellular PD1/LAG3 dimerization assay on PD1+LAG3+ U2OS cells, chemoluminescence; the signal needs PD1 and LAG3 bound at once
# Method: For this specific interaction, the cytosolic C-terminal ends of both receptors were individually fused to heterologous subunits of a reporter enzyme.
# On the next day cell medium was discarded and replaced by fresh medium. Antibody or ligand dilutions were prepared and titrated amounts of indicated (bispecific) antibodies were added and incubated at 37° C. for 2 hours. Next, a substrate/buffer mix (e.g. PathHunterFlash detection reagent) was added and again incubated for 1h. For measuring chemoluminescence induced upon simultaneous binding and dimerization a Tecan infinite reader was used.
Binder,"EC50 [pM], dimerization binding assay (chemoluminescence) [1]","EC50 [pM], dimerization binding assay (chemoluminescence) [2]",EC50 [3],EC50 [4],EC50 [5],EC50 [6],IC50 (biotinylated-Lag3),EC50 (read off the curve) [7]
B1,28 pM,114 pM,0.06 nM,0.06 nM,0.2 nM,0.34 nM,0.47 nM,–
B2,119 pM,124 pM,0.06 nM,0.05 nM,0.17 nM,0.32 nM,0.39 nM,–
B3,–,83 pM,0.04 nM,0.05 nM,0.2 nM,0.46 nM,0.45 nM,–
B4,–,91 pM,0.05 nM,0.05 nM,0.17 nM,0.54 nM,0.44 nM,–
B5,–,–,–,–,–,–,–,~0.4 µg/mL
